Our source for the fold decline of binding affinity compared to RBD WT values is doi:10.1101/2025.06.05.658000.

Assay [1] concerns the target HLA-DR (DRA1*01:01 / DRB1*04:05), soluble knob-into-hole Fc heterodimer (human). Nature of the assay: ELISA.
Assay [2] concerns the target HLA-DR (DRA1*01:01 / DRB1*11:04), soluble knob-into-hole Fc heterodimer (human). Nature of the assay: ELISA.

Consider “SARS-CoV-2 RBD peptide RBD447-461 of the Omicron BA.5 variant (from UniProt P0DTC2 447-461)”, for which the fold decline of binding affinity compared to RBD WT in assay [1] and in assay [2] was more than 16 fold throughout.
For the substance “SARS-CoV-2 RBD peptide RBD447-461 of the BA.2.86 variant (from UniProt P0DTC2 447-461)”, the fold decline of binding affinity compared to RBD WT in assay [1] and in assay [2] was more than 16 fold throughout.
